Results reported in patent publication US20160177307.

How the values were obtained:
Experiment in all cases: filter
[1] = test system: T1, VEGF-121 (Homo sapiens), P15692-9
T1 sequence: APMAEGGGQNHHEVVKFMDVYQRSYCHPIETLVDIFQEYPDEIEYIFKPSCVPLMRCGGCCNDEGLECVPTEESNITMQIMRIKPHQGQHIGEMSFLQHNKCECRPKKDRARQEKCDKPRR

[2] = test system: T2, VEGF-165 (Homo sapiens), P15692-4
T2 sequence: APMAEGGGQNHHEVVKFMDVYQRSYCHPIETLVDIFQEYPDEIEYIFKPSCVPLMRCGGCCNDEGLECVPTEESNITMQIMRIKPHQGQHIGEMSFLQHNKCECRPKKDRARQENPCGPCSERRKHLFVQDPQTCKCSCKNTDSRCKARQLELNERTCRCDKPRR

[3] = target: PDGF-BB (platelet-derived growth factor BB) (Homo sapiens) (UniProt P01127); details: 2'-OMe
[4] = as 4867-31_192, PS 3' of 17 as printed, 3' inverted dT
[5] = Nap-dU, Bn-dU, MBn-dU, 2'-OMe, C3, 1 Heg between parts
[6] = Nap-dU, Bn-dU, MBn-dU, 2'-OMe, C3, 2 Heg between parts

Sequence of PDGF-BB (platelet-derived growth factor BB) (Homo sapiens) (P01127 82-190): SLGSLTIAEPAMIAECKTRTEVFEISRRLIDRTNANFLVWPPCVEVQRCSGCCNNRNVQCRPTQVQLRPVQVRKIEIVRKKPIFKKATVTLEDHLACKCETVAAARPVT

AGCCGTTCAAGTGCTTGTAGGATTTAAAT [4867-31_53]
Kd ([1]; NapdU at P): 19 nM
Kd ([2]; NapdU at P): 3.2 nM

CCGTTCAAGTGCTTGTAGGATTTAAATGG [4867-31_426]
Kd ([1]; as 4867-31_192, PS 3' of 24, 3' inverted dT): 0.012 nM

CCGTTCAAGTGCTTGTAGGATTTAAATGG [4867-31_427]
Kd ([1]; as 4867-31_192, PS 3' of 25, 3' inverted dT): 0.0081 nM

CCGTTCAAGTGCTTGTAGGATTTAAATGG [4867-31_428]
Kd ([1]; as 4867-31_192, PS 3' of 26, 3' inverted dT): 0.0084 nM

CCGTTCAAGTGCTTGTAGGATTTAAATGG [4867-31_429]
Kd ([1]; as 4867-31_192, PS 3' of 27, 3' inverted dT): 0.012 nM

CCGTTCAAGTGCTTGTAGGATTTAAATGG [4867-31_438]
Kd ([1]; as 4867-31_192, PS 3' of 6, 3' inverted dT): 0.013 nM

CCGTTCAAGTGCTTGTAGGATTTAAATGG [4867-31_439]
Kd ([1]; as 4867-31_192, PS 3' of 9, 3' inverted dT): 0.024 nM

CCGTTCAAGTGCTTGTAGGATTTAAATGG [4867-31_440]
Kd ([1]; as 4867-31_192, PS 3' of 12, 3' inverted dT): 0.0099 nM

CCGTTCAAGTGCTTGTAGGATTTAAATGG [4867-31_441]
Kd [1, 4]: 0.017 nM

CCGTTCAAGTGCTTGTAGGATTTAAATGG [4867-31_442]
Kd [1, 4]: 0.015 nM

CCGTTCAAGTGCTTGTAGGATTTAAATGG [4867-31_443]
Kd ([1]; as 4867-31_192, PS 3' of 18, 3' inverted dT): 0.0085 nM

CCGTTCAAGTGCTTGTAGGATTTAAATGG [4867-31_444]
Kd ([1]; as 4867-31_192 plus PS 3' of G28, 3'-idT, PS walk): 0.0075 nM

CCGTTCAAGTGCTTGTAGGATTTAAATGG [4867-31_445]
Kd ([1]; as 4867-31_192, PS 3' of 29, 3' inverted dT): 0.01 nM

CCGTTCAAGTGCTTGTAGGATTTAAATGG [4867-31_475]
Kd ([1]; as 4867-31_192, 2'-OMe 1, PS 25): 0.026 nM

CCGTTCAAGTGCTTGTAGGATTTAAATGG [4867-31_476]
Kd ([1]; as 4867-31_192, 2'-OMe 1, PS 26, printed 2.1-11): 0.021 nM

CCGTTCAAGTGCTTGTAGGATTTAAATGG [4867-31_477]
Kd ([1]; as 4867-31_192, 2'-OMe 1, PS 25,26): 0.024 nM

CCGTTCAAGTGCTTGTAGGATTTAAATGG [4867-31_478]
Kd ([1]; as 4867-31_192, PS 25,26): 0.019 nM

CCGTTCAAGTGCTTGTAGGATTTAAATGG [4867-31_479]
Kd ([1]; as 4867-31_192, 2'-OMe 1, PS 24): 0.026 nM

CCGTTCAAGTGCTTGTAGGATTTAAATGG [4867-31_480]
Kd ([1]; as 4867-31_192, 2'-OMe 1, PS 24,25): 0.028 nM

CCGTTCAAGTGCTTGTAGGATTTAAATGG [4867-31_481]
Kd ([1]; as 4867-31_192 plus 2'-OMe C1 and PS 3' of A24,A25,A26, 3'-idT): 0.026 nM

CCGTTCAAGTGCTTGTAGGATTTAAATGG [4867-31_482]
Kd ([1]; as 4867-31_192, PS 24,25,26): 0.024 nM

CCGTTCAAGTGCTTGTAGGATTTAAATGG [4867-31_483]
Kd ([1]; as 4867-31_192, PS 24,25): 0.032 nM

CCGTTCAAGTGCTTGTAGGATTTAAATGGCGACAGCATGTATGCACATCT [5169-4_93 (VEGF-6Heg-PDGF)]
Kd ([1]; P NapdU, superscript 1 2'-OMe, six Heg linkers): 0.052 nM

CCGTTCAAGTGCTTGTAGGATTTAAATGGCGACAGCATGTATGCACATCT [5169-4_94]
Kd ([1]; VEGF-5Heg-PDGF, NapdU, 2'-OMe): 0.066 nM

CCGTTCAAGTGCTTGTAGGATTTAAATGGCGACAGCATGTATGCACATCT [5169-4_95]
Kd ([3]; VEGF-4Heg-PDGF, NapdU): 0.0012 nM
Kd ([1]; VEGF-4Heg-PDGF, NapdU, 2'-OMe): 0.043 nM

CCGTTCAAGTGCTTGTAGGATTTAAATGGCGACAGCATGTATGCACATCT [5169-4_96]
Kd ([3]; VEGF-3Heg-PDGF, NapdU): 0.0045 nM
Kd ([1]; VEGF-3Heg-PDGF, NapdU, 2'-OMe): 0.076 nM

CCGTTCAAGTGCTTGTAGGATTTAAATGGCGACAGCATGTATGCACATCT [5169-4_97]
Kd ([3]; VEGF-2Heg-PDGF, NapdU): 0.0037 nM
Kd ([1]; VEGF-2Heg-PDGF, NapdU, 2'-OMe): 0.1 nM

CCGTTCAAGTGCTTGTAGGATTTAAATGGCGACAGCATGTATGCACATCT [5169-4_98]
Kd ([3]; VEGF-1Heg-PDGF, NapdU): 0.0053 nM
Kd ([1]; VEGF-1Heg-PDGF, NapdU, 2'-OMe): 0.14 nM

CCGTTCAAGTGCTTGTAGGATTTAAATGGTTACGTTACCGCGTTTATAGCG [4149-8_408]
Kd ([3]; Nap-dU, Bn-dU, MBn-dU, C3, 1 Heg between parts): 0.043 nM
Kd [1, 5]: 0.044 nM
Kd [2, 5]: 0.041 nM

CCGTTCAAGTGCTTGTAGGATTTAAATGGTTACGTTACCGCGTTTATAGCG [4149-8_409]
Kd ([3]; Nap-dU, Bn-dU, MBn-dU, C3, 2 Heg between parts): 0.6 nM
Kd [1, 6]: 0.026 nM
Kd [2, 6]: 0.029 nM
